# Biological target: T1, human mitochondrial trifunctional protein (hTFP α/β) immunopurified from macrophages (human (endogenous in macrophages), UniProt P40939-1 37-763; P55084 34-474, phosphotyrosine: 21% of the immunopurified hTFP is phosphorylated on Tyr (sites not identified))
# T1 construct: also called immunopurified hTFP; hTFPα from macrophages; source: endogenous, macrophage extract; immunoprecipitated with anti-TFP monoclonal antibody (ab110302) on beads, eluted with 50 mM citrate pH 2.6
# T1 sequence (P40939 37-763, chain 1 of 2): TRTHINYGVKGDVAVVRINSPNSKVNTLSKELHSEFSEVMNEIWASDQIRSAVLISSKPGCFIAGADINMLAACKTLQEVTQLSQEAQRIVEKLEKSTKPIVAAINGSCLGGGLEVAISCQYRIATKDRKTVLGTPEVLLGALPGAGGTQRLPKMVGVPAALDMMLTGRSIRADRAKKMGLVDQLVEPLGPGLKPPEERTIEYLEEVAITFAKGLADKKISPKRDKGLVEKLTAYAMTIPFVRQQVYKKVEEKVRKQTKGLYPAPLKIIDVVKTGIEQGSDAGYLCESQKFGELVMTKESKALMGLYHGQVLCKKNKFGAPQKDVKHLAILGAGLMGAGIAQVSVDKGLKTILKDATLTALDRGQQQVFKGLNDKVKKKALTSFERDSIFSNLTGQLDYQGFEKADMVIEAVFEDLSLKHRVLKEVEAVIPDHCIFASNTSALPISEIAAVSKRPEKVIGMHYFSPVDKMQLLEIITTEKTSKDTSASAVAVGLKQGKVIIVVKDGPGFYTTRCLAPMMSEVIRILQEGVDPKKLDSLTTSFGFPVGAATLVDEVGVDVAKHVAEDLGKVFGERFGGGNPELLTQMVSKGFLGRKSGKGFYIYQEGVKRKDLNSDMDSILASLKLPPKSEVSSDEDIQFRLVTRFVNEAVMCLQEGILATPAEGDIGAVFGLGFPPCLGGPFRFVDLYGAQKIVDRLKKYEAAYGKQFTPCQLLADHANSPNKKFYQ
# T1 sequence (P55084 34-474, chain 2 of 2): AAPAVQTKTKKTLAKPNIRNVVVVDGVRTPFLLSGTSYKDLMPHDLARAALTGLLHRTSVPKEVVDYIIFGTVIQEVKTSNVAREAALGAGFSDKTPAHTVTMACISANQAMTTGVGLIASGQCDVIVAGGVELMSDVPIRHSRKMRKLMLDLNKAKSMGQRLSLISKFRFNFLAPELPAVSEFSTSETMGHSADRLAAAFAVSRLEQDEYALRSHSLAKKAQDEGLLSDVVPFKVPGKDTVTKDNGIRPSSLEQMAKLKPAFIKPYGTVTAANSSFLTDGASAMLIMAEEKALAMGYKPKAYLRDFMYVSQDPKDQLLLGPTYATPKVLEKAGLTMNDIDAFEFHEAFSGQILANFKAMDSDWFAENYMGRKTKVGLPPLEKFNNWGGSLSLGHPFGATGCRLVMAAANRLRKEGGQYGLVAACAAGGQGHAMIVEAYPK
# Assay: SPR
# Conditions: both partners purified
binder,measurement,value
"Mycobacterium tuberculosis PtpA, recombinant wild type (enzyme, also called rPtpA; PtpA-wt) MSDPLHVTFVCTGNICRSPMAEKMFAQQLRHRGLGDAVRVTSAGTGNWHVGSCADERAAGVLRAHGYPTDHRAAQVGTEHLAADLLVALDRNHARLLRQLGVEAARVRMLRSFDPRSGTHALDVEDPYYGDHSDFEEVFAVIESALPGLHDWVDERLARNGPS",Kd,0.31 µM

# From paper PMC10325834, “Characteristics of Mycobacterium tuberculosis PtpA interaction and activity on the alpha subunit of human mitochondrial trifunctional protein, a key enzyme of lipid metabolism” (Frontiers in Cellular and Infection Microbiology, 2023)
